The record followed here is publication PMC10471729, “Luvadaxistat: A Novel Potent and Selective D-Amino Acid Oxidase Inhibitor Improves Cognitive and Social Deficits in Rodent Models for Schizophrenia” (Neurochemical Research, 2023).

In this data set the test system is T1, N[C@H](CO)C(=O)O.
T1 construct: human recombinant DAAO enzyme
Kind of data set: Amplex Red H2O2 detection; Michaelis constant (in-house data). Conditions: FAD. In kind it is biochemical, Homo sapiens.

Chain of D-amino acid oxidase (DAAO) (Homo sapiens) (chain, as listed by the source): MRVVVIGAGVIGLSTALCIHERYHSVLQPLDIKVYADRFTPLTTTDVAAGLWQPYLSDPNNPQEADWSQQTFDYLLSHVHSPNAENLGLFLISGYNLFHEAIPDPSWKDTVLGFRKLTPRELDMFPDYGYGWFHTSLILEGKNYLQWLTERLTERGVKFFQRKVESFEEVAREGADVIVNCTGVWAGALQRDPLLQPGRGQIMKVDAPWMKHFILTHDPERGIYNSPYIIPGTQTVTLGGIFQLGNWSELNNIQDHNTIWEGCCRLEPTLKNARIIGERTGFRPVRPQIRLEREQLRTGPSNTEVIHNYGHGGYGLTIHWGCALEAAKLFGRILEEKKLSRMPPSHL

As for “D-amino acid oxidase (DAAO) (Homo sapiens)”, the Km came to 1200 µM.
